Experimental findings from patent US20080004355A1, “Method for Inhibiting Telomerase Activity and an Agent for Inhibiting the Same” (priority 2004, published 2008) are described below.

Substitutions are numbered along the chain they refer to. Peptide text beside a SMILES is read from it. * marks the point of attachment. Cbz = O=C(OCc1ccccc1)*

One series has as its system TERT. As to the kind of experiment: Effect of proteasome inhibitor on amount of intracellular TERT (transient TERT expression, Western blotting). In kind it is cell-based, human. The conditions noted are these: HEK293T cells transfected with pCIneo-TERT; final concentration 25 μM, 24 hours; compared with DMSO control; Western blotting with anti-TERT antibodies. An excerpt:
NEDD8 is a ubiquitin-like protein, and is known to covalently conjugate to proteins for post translational modification of proteins. Only a cullin family protein, which is one of the subunits of a ubiquitin ligase complex, has been reported as a protein that undergoes NEDD8 conjugation (Non-patent References 5 and 6). […] NEDD8 has a significant homology with ubiquitin at the level of both primary structure and tertiary structure. Therefore, it is plausible that NEDD8 conjugation to proteins works as a signal for proteasome-dependent protein degradation (Non-patent Reference 5), similar to ubiquitination. Thus, it can be reasoned, that there exists a regulatory system for TERT degradation via modification by NEDD8 conjugation to TERT and NEDD8 deconjugation by USP21. Accordingly, an investigation was conducted to determine whether TERT may undergo proteasome-dependent degradation. […]
8×10^4 cells/well of HEK293T cells were cultured overnight at 37° C. under the atmosphere of 5% CO2 in 12 well plates, and then transfected with 1 μg of pCIneo-TERT using FuGENE6 Transfection Reagent (Roche). […] Further, β-tubulin, an internal control protein in the cell lysates, was detected by Western blotting using anti-β-tubulin (H-235) antibodies (Santa Cruz). […]

The target in series [1] is TERT modified with one or more FLAG-NEDD8 molecules (NEDD8-conjugated TERT).
Series [2] has as its target T1, N-terminal FLAG-tagged TERT (human, UniProt O14746 1-1132).
T1 construct: Expressed transiently in HEK293T cells from pCI-FLAG-TERT (human TERT cDNA cloned from human thymus cDNA); present in the cell lysate; also called FLAG-TERT
As to the kind of experiment: co-expression in HEK293T cells, immunoprecipitation with anti-HA agarose, Western blot with anti-FLAG. The method, then: 4×10⁵ HEK293T cells were cultured overnight at 37° C. under the atmosphere of 5% CO₂ in a dish with 60 mm diameter, and then transfected with 2 μg of pCI-FLAG-TERT alone or in combination with 2 μg of pCI-HA-USP21 or pCI-HA-NEDD8, using FuGENE6 Transfection Reagent (Roche). After 2 days of culturing, the cells were collected and suspended in 500 μl of cell lysis buffer (20 mM Tris-HCl, pH7.4/150 mM NaCl/1 mM ethylenediaminetetraacetic acid (EDTA)/1 mM ethylene glycol-bis-tetraacetic acid (EGTA)/1% Triton X-100/2.5 mM sodium pyrophsphate/1 mM β-glycerophsphate/1 mM Na₃VO₄/protease inhibitor cocktail), and then left to stand on ice for 20 minutes. Subsequently, centrifugation was conducted at 4° C. for 10 minutes at 14,000 rpm to collect the supernatants. The supernatants that were collected were used as cell lysates. […] The resulting supernatant was added to 10 μl of anti-HA antibody-conjugated agarose (anti-HA(Y-11)-agaraose, Santa cruz), and then subjected to overturned mixing at 4° C. overnight, followed by centrifugation to collect the beads. The beads were washed with the cell lysis buffer four times, and then added with 30 μl of 2× SDS sample buffer (125 mM Tris HCl, pH 6.8/4% sodium dodecylsulphate (SDS)/20% glycerol/0.01% bromophenol blue). […]

T1 sequence (O14746 whole entry): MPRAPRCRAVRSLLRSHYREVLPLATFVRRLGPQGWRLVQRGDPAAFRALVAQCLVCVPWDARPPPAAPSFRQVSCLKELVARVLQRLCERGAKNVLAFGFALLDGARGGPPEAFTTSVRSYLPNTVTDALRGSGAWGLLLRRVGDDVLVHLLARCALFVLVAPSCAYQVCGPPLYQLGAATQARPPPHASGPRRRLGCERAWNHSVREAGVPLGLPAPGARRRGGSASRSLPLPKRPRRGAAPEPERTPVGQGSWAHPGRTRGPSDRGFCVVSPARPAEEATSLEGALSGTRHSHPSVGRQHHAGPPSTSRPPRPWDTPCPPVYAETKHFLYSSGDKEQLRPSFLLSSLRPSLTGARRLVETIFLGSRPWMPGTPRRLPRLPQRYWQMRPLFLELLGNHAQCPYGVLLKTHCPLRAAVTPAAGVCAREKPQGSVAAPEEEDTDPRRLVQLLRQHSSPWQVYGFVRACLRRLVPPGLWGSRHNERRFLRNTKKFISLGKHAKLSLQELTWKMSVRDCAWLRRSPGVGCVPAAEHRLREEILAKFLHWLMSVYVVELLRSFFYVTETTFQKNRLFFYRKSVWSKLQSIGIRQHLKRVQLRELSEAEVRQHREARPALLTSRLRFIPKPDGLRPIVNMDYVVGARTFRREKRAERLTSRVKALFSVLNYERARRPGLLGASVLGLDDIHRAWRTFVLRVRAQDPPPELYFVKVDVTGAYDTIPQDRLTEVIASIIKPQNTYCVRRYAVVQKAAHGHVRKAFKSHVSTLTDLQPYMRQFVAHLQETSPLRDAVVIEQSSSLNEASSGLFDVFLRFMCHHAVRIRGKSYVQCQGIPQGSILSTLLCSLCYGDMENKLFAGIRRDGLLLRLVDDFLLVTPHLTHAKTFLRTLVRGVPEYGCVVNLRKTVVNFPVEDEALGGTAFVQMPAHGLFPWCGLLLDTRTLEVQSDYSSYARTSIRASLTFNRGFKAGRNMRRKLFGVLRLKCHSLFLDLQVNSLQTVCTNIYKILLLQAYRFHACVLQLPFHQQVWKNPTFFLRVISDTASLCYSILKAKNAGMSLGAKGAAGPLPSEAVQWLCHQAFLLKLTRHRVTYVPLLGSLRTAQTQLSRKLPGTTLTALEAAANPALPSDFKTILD

As for `CC(C)C[C@@H](C=O)NC(=O)[C@H](CC(C)C)NC(=O)[C@H](CC(C)C)NC(=O)OCc1ccccc1` [MG132] (Cbz-Leu-Leu-Leu-aldehyde), the “amount of TERT in cell lysate” value with TERT is on record as “increased amount of TERT”.

B1: N-terminal HA-tagged USP21 (enzyme, not shown: small tags and cut ends)
chain: MPQASEHRLGRTREPPVNIQPRVGSKLPFAPRARSKERRNPASGPNPMLRPLPPRPGLPDERLKKLELGRGRTSGPRPRGPLRADHGVPLPGSPPPTVALPLPSRTNLARSKSVSSGDLRPMGIALGGHRGTGELGAALSRLALRPEPPTLRRSTSLRRLGGFPGPPTLFSIRTEPPASHGSFHMISARSSEPFYSDDKMAHHTLLLGSGHVGLRNLGNTCFLNAVLQCLSSTRPLRDFCLRRDFRQEVPGGGRAQELTEAFADVIGALWHPDSCEAVNPTRFRAVFQKYVPSFSGYSQQDAQEFLKLLMERLHLEINRRGRRAPPILANGPVPSPPRRGGALLEEPELSDDDRANLMWKRYLEREDSKIVDLFVGQLKSCLKCQACGYRSTTFEVFCDLSLPIPKKGFAGGKVSLRDCFNLFTKEEELESENAPVCDRCRQKTRSTKKLTVQRFPRILVLHLNRFSASRGSIKKSSVGVDFPLQRLSLGDFASDKAGSPVYQLYALCNHSGSVHYGHYTALCRCQTGWHVYNDSRVSPVSENQVASSEGYVLFYQLMQEPPRCL
notes: Expressed transiently in HEK293T cells from pCI-HA-USP21 (human USP21 cDNA cloned from human kidney cDNA); also called HA-USP21
As for B1, the “smear-like signals in a high molecular region indicating TERT modified with one or more FLAG-NEDD8 molecules (IP anti-TERT, Western blot anti-FLAG)” value in series [1] is “significantly decreased by co-expression of HA-USP21”. Moreover, the binding result in series [2] was “binds”.

B2: N-terminal HA-tagged inactive USP21 (protein)
chain: B1 chain with C221A
For B2, in series [1], the “smear-like signals in a high molecular region indicating TERT modified with one or more FLAG-NEDD8 molecules (IP anti-TERT, Western blot anti-FLAG)” value is “Such decrease of the signals was not observed when co-expressing the inactive USP21, HA-USP21C221A, instead of HA-USP21”.
